In US20240398929A1:

How the values were obtained:
[1] = biological target: GP[change] with 12D insertion after residue A309 (Ebola virus)
[2] = biological target: GP[change] with 8D insertion after residue A309 (Ebola virus)

mAb114 (antibody)
fold increase in binding against WT-GPΔmucin [1]: 2 fold | fold increase in binding against WT-GPΔmucin [2]: 2 fold
